Experimental findings from US20080075726A1 (VACCINEX, published 2008) are described below.

In experiment [1] the target is T1, natural monkey IL-6 from rhesus monkey serum (rhesus monkey, UniProt P51494 28-212, limits assumed).
T1 sequence (looked up): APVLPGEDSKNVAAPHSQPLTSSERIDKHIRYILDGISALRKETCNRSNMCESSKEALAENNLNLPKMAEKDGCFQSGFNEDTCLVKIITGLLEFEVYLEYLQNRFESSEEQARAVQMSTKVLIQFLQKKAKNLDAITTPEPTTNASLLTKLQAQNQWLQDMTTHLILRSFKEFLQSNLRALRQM
Put plainly: competition ELISA (U-Cytech Monkey IL-6 kit): rhesus monkey serum (plasma on the sheet) at dilutions 1/10 to 1/640 with the antibody at 5 µg/ml as competitor of the kit's coated IL-6 antibody; a lower OD than the sample '0' means binding. A general note: ELISA stands for enzyme-linked immunosorbent assay.

Experiment [2] addresses human serum albumin (human, UniProt P02768 25-609). The experiment is described as follows: ELISA on a panel of control antigens (data not shown).
In experiment [3] the target is human insulin (human, UniProt P01308 25-54; P01308 90-110, limits assumed). The experiment is described as above.
For experiment [4], the target named is bovine serum albumin (bovine, UniProt P02769 25-607). The experiment is described as above.
Experiment [5] addresses T2, recombinant human IL-6 (human, UniProt P05231 30-212, limits assumed).
T2 construct: also called rhIL6; human recombinant IL-6
The experiment is described as follows: Biacore 2000, mAb captured on anti-human IgG CM5 chip, human IL-6 40-1.25 nM injected. On the procedure:
(§1) IC50 ELISA was performed as described above. Affinity analysis by Biacore was performed according to manufacturer protocols using HBS-EP buffer (Biacore AB).
For orientation: SPR reads the build-up and loss of mass on a sensor chip optically.

Experiment [6] addresses T3, recombinant rat IL-6 (rat, UniProt P20607 25-211).
T3 sequence (looked up): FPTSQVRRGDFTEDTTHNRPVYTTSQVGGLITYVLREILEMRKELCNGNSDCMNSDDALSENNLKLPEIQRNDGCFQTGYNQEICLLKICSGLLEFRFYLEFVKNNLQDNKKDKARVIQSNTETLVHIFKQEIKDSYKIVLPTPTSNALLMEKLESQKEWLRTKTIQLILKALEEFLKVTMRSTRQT
Put plainly: ELISA on coated rat IL-6; human mAbs detected with rabbit anti-human IgG-HRP; series 100, 50, 25, 12.5 ng/ml (antibody by paragraph 42; headed mIL-6 (ng/ml) on the sheet). Here is the method: (§2) For sample “0,” no antibody was added. […] Each column represents a mean of two experiments +/− standard deviation.
(§3) For experiments using human monoclonal antibodies, IgG1 Kappa (human myeloma IgG1; Sigma-Aldrich Co.) mAb was used as a control. Rabbit anti-human IgG-HRP (Dako) was added at a dilution of 1/10,000 at 100 μl/well for detection of mAbs. […] For pAbs, Streptavidin-HRP (Prozyme) was added for detection at 100 μl/well. Antibodies were applied at concentrations of 12.5, 25, 50, and 100 ng/ml.

For experiment [7], the target named is T2, recombinant human IL-6. Put plainly: competition ELISA, rhIL-6 in solution against captured IL-6 (Affinity (nM) by IC50 ELISA). On the procedure:
Briefly, plates were coated with 2 μg/ml of mBE4 capture antibody in coating buffer, 100 μl per well. The plates were incubated overnight. Next, the plates were washed 3 times and tapped dry. The plates were then blocked with 200 μl per well of Assay Diluent or 10% FBS in PBS and incubated for 2 hours. […] The reaction was left at RT for 3-4 hours. […] Next, the plates were washed 3 times and tapped dry. […] The plates were incubated for 1-2 hours. The plates were washed 3 times and tapped dry. […] The plates were incubated at RT for 2 hours. (Therefore, any unbound mAb at this point will be measured by ELISA). Plates were then washed 5 times and tapped dry. 100 μl of detection Ab goat anti-human IgG F(ab)′2-HRP (Jackson lab) was added at 1:20,000 dilutions or 1:40,000 dilutions (depending on lot) and the plates were incubated for 1-2 hours. The plates were washed 7 times and tapped dry. Next, the Developer Substrate (equal parts of each reagent in the kit) was pre-mixed and allowed to warm to room temperature before use. Then 100 μl of Developer was added to each well. The plates were allowed to develop for 15 minutes un-sealed in a drawer in the dark. Finally, developing was stopped by adding 100 μl of 2N H₂SO₄ to each well and plates were read as Endpoint at 450 nm-[…].
as §1

Experiment [8] deals with T4, recombinant murine IL-6 (murine, UniProt P08505 25-211).
T4 sequence (looked up): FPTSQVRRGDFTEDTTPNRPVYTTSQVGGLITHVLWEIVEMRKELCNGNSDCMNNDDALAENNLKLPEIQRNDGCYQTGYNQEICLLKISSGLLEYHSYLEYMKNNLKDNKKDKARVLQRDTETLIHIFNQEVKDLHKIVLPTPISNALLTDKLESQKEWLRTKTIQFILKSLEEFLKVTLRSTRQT
Put plainly: ELISA on coated murine IL-6; human mAbs detected with rabbit anti-human IgG-HRP; series 100, 50, 25, 12.5 ng/ml (antibody by paragraph 42; headed mIL-6 (ng/ml) on the sheet). On the procedure:
as §2, §3

The target of experiment [9] is T2, recombinant human IL-6. Put plainly: competition ELISA, rhIL-6 in solution against captured IL-6.

Chain of human insulin (P01308 25-54 limits assumed, chain 1 of 2): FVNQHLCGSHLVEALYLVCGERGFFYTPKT
Chain of human insulin (P01308 90-110 limits assumed, chain 2 of 2): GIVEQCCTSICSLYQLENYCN
Chain of bovine serum albumin (P02769 25-607 limits assumed): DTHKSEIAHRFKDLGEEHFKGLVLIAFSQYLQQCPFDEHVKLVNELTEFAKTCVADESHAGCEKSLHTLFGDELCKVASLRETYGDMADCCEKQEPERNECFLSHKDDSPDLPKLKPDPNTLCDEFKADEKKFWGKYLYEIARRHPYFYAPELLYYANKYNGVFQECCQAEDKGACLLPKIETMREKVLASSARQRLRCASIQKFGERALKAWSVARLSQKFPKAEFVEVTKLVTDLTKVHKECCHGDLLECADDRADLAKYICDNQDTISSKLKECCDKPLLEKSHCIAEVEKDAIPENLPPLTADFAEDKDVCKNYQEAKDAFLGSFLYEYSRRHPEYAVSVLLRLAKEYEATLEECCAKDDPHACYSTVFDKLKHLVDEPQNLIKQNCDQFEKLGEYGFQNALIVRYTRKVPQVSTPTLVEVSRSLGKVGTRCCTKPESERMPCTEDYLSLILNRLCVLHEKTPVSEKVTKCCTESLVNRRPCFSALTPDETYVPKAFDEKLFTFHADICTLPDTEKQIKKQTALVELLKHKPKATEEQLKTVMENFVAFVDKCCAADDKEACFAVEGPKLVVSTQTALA
Chain of human serum albumin (P02768 25-609 limits assumed): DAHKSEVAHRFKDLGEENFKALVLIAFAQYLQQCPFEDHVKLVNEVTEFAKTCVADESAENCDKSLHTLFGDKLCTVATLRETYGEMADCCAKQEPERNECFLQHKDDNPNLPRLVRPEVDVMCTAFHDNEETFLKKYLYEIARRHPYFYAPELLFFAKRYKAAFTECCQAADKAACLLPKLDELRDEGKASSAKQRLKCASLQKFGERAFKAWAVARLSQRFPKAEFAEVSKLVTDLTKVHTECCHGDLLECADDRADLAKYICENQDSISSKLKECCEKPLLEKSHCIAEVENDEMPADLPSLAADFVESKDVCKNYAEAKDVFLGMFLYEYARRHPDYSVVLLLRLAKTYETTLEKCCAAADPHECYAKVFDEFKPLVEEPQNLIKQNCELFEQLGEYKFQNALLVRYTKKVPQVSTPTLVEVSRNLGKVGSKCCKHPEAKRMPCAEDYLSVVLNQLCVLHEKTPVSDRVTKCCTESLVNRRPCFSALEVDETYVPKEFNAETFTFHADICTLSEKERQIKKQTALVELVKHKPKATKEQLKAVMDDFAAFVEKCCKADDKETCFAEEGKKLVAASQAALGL

B1: mAb 1339 (antibody, human IgG1, kappa, V domains shown)
VH: QVTLKESGPTLVKPTQTLTLTCSFSGFSLSTSGVGVGWVRQPPGKALEWLAFIWWDDDKYYSPSLESRLTITKDTSKNQVVLTMTNMDPVDTATYYCARSADDYLYYSFDTWGQGTLVTVSS
VL: DIQMTQSPSSLSAFVGDGVTMTCWASQSINDYLNWYHQRPGEAPELLVFAASNLQIGVPSRFRGSGSETYFTLTINSLQPEDSGTYFCQNAHSFPLTFGGGTKLEIKR
In general, Kd refers to the constant that tells how readily two partners part at equilibrium. One may read the IC50 as the concentration that inhibits the measured activity by half. Regarding B1, the binding result is “binds” in experiment [1]; “no binding” in experiment [2]; “no binding” in experiment [3]; “no binding” in experiment [4]; “no binding (tested: 100 ng/ml)” in [6]; “no binding (tested: 100 ng/ml (Ab: 0.1 µg/ml in the title))” in experiment [8]. Besides, the Kd in experiment [5] came to 0.071 nM. For the same molecule, the IC50 in [7] and in experiment [9] was 0.026 nM throughout.
